From US20120141480A1 come the findings set out here.

For test [1], the target named is dog factor D (in dog serum) (dog). Kind of test: cell-based or functional assay. As to conditions: scale: times less effective than on human factor D.
The target in test [2] is human factor D (purified from human serum) (human) (UniProt P00746). The test is described as follows: cell-based or functional assay.

Bounds are passed on as bounds.

Sequence of UniProt P00746 (P00746 26-253 N180D): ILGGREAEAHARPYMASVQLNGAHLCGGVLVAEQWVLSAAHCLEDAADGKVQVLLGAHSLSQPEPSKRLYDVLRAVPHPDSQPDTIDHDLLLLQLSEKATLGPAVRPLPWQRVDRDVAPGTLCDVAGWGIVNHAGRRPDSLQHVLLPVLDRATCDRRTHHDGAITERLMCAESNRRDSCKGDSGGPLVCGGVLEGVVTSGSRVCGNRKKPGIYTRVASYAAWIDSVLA

Take MAb 166-32 (antibody): the neutralization of dog factor D in hemolytic assays, against human factor D in test [1] is > 10. Besides, in test [2], the alternative pathway hemolytic activity of plasma from an extracorporeal circuit with human whole blood (molar ratio (MAb:factor D)) amounted to 1.5, the inhibition of factor D dependent hemolysis of unsensitized rabbit RBCs (factor D depleted human serum reconstituted with purified factor D) was found to be 0.3 µg/mL and the molar ratio for inhibition of factor D dependent hemolysis (molar ratio (MAb 166-32 to factor D)) is 0.5.
